Reference: paper PMC3913652

Target: rat GLP-1 receptor (rat) (UniProt P32301)
Sequence (P32301 22-463): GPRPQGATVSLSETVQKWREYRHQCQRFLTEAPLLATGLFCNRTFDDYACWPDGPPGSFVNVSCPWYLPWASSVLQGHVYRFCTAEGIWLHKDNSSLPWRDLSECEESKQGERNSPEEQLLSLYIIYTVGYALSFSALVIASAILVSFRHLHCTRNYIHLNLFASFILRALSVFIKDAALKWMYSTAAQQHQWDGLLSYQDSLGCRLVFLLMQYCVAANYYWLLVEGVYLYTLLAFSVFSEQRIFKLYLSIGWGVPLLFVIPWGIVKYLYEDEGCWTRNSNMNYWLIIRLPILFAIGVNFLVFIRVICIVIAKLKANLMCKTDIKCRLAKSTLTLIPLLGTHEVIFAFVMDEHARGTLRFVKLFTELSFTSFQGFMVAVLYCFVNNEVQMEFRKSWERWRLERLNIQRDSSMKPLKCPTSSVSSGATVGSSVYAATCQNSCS

[Leu^14]exenatide (peptide)
EC50, cAMP in 6–23 clone 6 cells (GLP-1 Receptor Functional Assay, 0.1% BSA): 6 pM
